In US20110097340A1 (SCHERING, published 2011):

T1: murine VEGF165 (murine, UniProt Q00731-2 27-190)
T1 construct: also called mVEGF165; rMu-VEGF165
T1 sequence (looked up): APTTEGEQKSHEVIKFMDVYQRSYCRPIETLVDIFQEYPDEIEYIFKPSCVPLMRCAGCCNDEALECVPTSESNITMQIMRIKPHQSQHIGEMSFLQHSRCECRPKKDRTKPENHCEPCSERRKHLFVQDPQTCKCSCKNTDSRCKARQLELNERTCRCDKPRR

T2: hVEGF121-G88S (human, UniProt P15692-9 27-147, G88S)
T2 construct: Transiently expressed in CHO-K1 cells; culture supernatant used
T2 sequence (looked up): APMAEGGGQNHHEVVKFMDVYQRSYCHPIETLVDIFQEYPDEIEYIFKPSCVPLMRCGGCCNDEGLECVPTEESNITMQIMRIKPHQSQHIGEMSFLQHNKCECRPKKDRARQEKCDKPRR

T3: hVEGF121-Q89A (human, UniProt P15692-9 27-147, Q89A)
T3 construct: Transiently expressed in CHO-K1 cells; culture supernatant used
T3 sequence (looked up): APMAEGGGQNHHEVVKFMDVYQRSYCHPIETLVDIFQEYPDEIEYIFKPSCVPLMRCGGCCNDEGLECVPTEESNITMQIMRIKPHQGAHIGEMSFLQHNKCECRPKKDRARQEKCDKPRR

T4: hVEGF121-G92A (human, UniProt P15692-9 27-147, G92A)
T4 construct: Transiently expressed in CHO-K1 cells; culture supernatant used
T4 sequence (looked up): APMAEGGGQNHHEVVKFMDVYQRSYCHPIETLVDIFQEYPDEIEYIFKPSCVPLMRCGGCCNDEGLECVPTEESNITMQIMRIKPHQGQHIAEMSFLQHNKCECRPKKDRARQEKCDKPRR

T5: wild-type hVEGF121 (human, UniProt P15692-9 27-147)
T5 sequence (looked up): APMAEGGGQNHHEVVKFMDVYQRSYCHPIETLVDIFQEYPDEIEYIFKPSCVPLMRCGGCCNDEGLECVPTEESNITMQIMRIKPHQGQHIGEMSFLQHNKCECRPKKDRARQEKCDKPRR

T6: hVEGF121-M81A (human, UniProt P15692-9 27-147)
T6 construct: Transiently expressed in CHO-K1 cells; culture supernatant used
T6 sequence (looked up): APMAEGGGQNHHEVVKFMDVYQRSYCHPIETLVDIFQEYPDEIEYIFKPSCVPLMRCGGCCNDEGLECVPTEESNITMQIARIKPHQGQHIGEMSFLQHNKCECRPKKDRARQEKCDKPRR


Legend:
murine VEGF165 [1] = target: T1, murine VEGF165; assay: Biacore; IgG2, Biacore: weak binding, KD >100 nM
murine VEGF165 [2] = target: T1, murine VEGF165; assay: Biacore 2000, mVEGF165 amine-coupled on C1 chip, antibody injected
Method: (§1) The VEGF binding affinity of these IgGs was tested on a Biacore 2000® by injecting the antibodies over a very low density antigen surface. Human or murine VEGF₁₆₅ was immobilized via standard amine coupling methods to flow cells on a C1 (planar carboxy surface) chip. Approximately 85 RU of each antigen was immobilized and a reference flow cell was activated and blocked. Antibodies were injected over the chip surface for 400 seconds at two different concentrations, after which dissociation was monitored. Data was analyzed by Scrubber® using double referencing and fitting with a 1:1 interaction. Regenerations were performed with 90 mM HCl with 500 mM NaCl.

human VEGF165 [3] = target: T7, human VEGF165 (human, UniProt P15692 207-395); assay: Biacore 2000, IgG2 captured on Protein A/G, hVEGF165 injected, 1:1 fit
T7 construct: Recombinant (R&D Systems 293-VE; sf21- or HEK 293-expressed depending on the assay); Biotinylated in the DELFIA assay; also called hVEGF165; rHu-VEGF165
Method: (§2) Dilution and running buffer for these experiments was HBS-EP (Biacore) with 1:50 dilution of Chemiblocker® (Chemicon). […] Antibody concentrations were approximately 0.5 μg/ml. hVEGF₁₆₅ expressed from sf21 cells was injected over five minutes at 30 μl/minute using the Kinject feature with 15 minute dissociation over fc1 and 2. […] Regenerations were performed with two injections of 100 mM HCl at 50 μl/minutes for twelve seconds each. Data was processed in Scrubber2 and fit by a 1:1 Langmuir interaction model after double referencing of the control flow cell and blank injections.

human VEGF165 [4] = target: T7, human VEGF165; assay: cell-based or functional assay
hVEGF121-G88S [5] = target: T2, hVEGF121-G88S; assay: sandwich ELISA, antibody coated, CHO-K1 supernatant
human VEGF165 [6] = target: T7, human VEGF165; assay: Biacore competition, inhibition of hVEGF165 binding to immobilized VEGF-R2
Method: (§3) VEGF receptor (R&D Systems) was immobilized on the CM5 chip at a density of approximately […] via amine coupling (Biacore). VEGF-R2 was immobilized on fc2 and VEGF-R1 was immobilized on fc4. Flow cells 1 and 3 served as references, and were activated and blocked in the same manner as the receptor immobilized flow cells. […] Samples were incubated for at least one hour prior to initiation of the Biacore analysis run. […] Samples were injected at 10 μl/minute for 1.5 minutes over all flow cells.
(§4) For data analysis, the slope of a linear portion of association (30 seconds to one minute) of the association phase was determined with a linear fit. […] Data was plotted in GraphPad Prism and fit with a sigmoidal dose response curve to calculate the EC₅₀.

hVEGF121-Q89A = target: T3, hVEGF121-Q89A; assay: sandwich ELISA, antibody coated
Method: (§5) Mutants were transiently expressed in CHO-K1 cells, and cell supernatants were collected for binding analysis by ELISA.
(§6) The plate was blocked with 30% ChemiBlock™ reagent (Millipore) in PBS for one hour at room temperature, and 30, 60, or 100 μl of CHO-K1 culture supernatant for each mutant, or 1 μg/ml of wild-type hVEGF₁₂₁, recombinant hVEGF₁₆₅, or recombinant mVEGF₁₆₅, was added to appropriate wells. After one hour of incubation, the plate was washed and incubated with a biotinylated goat polyclonal anti-VEGF antibody for one hour at room temperature. Detection was performed with HRP-conjugated streptavidin, followed by TMB chromogenic substrate (Calbiochem) using manufacturer protocol.

hVEGF121-G92A = target: T4, hVEGF121-G92A; assay: sandwich ELISA, antibody coated
Method: as §5, §6

human VEGF165 [7] = target: T7, human VEGF165; assay: sandwich ELISA, antibody coated
Method: as §5, §6

wild-type hVEGF121 = target: T5, wild-type hVEGF121; assay: sandwich ELISA, antibody coated
Method: as §5, §6

hVEGF121-M81A = target: T6, hVEGF121-M81A; assay: sandwich ELISA, antibody coated
Method: as §5, §6

hVEGF121-G88S [8] = target: T2, hVEGF121-G88S; assay: sandwich ELISA, antibody coated
Method: as §5, §6

murine VEGF165 [9] = target: T1, murine VEGF165; assay: sandwich ELISA, antibody coated; epitope ELISA, fold over CHO background: at background, no binding seen
Method: as §6

human VEGF165 [10] = target: T7, human VEGF165; assay: cell-based or functional assay; remark: listed apart in the source
human VEGF165 [11] = target: T7, human VEGF165; assay: Biacore competition, inhibition of hVEGF165 binding to immobilized VEGF-R1
Method: as §3, §4

human VEGF165 [12] = target: T7, human VEGF165; assay: Biacore 2000, hVEGF165 amine-coupled on C1 chip, antibody injected, 1:1 fit
Method: as §1
Target sequence in this assay (P15692 other isoform, or with tags, fused parts or gaps limits assumed): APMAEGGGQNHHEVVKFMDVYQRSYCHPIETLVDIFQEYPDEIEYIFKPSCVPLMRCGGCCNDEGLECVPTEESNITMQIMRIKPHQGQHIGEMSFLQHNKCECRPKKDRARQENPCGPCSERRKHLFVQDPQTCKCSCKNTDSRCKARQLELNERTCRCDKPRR

human VEGF165 [13] = target: T7, human VEGF165; assay: cell-based or functional assay; remark: listed apart in the source
Target sequence in this assay (P15692 other isoform, or with tags, fused parts or gaps limits assumed): as above

human VEGF165 [14] = target: T7, human VEGF165; assay: Biacore, IgG2 (summary table); lower end of the range of IgG2 Biacore results
Method: as §2

human VEGF165 [15] = target: T7, human VEGF165; assay: Biacore, IgG2 (summary table)
Method: as §2

Kd (murine VEGF165 [1]) [nM] | Kd (human VEGF165 [3]) [nM] | koff (human VEGF165 [3]) [s⁻¹] | kon (human VEGF165 [3]) [M⁻¹ s⁻¹] | HPP: sf21-hVEGF165, IgG2 (IC50) (human VEGF165 [4]) [µg/mL] | binding result (hVEGF121-G88S [5]) | EC50 (human VEGF165 [6]) [µg/mL] | Raw data (ELISA signal) (hVEGF121-Q89A) | fold binding over CHO background (hVEGF121-Q89A) [fold] | Raw data (ELISA signal) (hVEGF121-G92A) | fold binding over CHO background (hVEGF121-G92A) [fold] | Raw data (ELISA signal) (human VEGF165 [7]) | fold binding over CHO background (human VEGF165 [7]) [fold] | Raw data (ELISA signal) (wild-type hVEGF121) | fold binding over CHO background (wild-type hVEGF121) [fold] | Raw data (ELISA signal) (hVEGF121-M81A) | fold binding over CHO background (hVEGF121-M81A) [fold] | Raw data (ELISA signal) (hVEGF121-G88S [8]) | fold binding over CHO background (hVEGF121-G88S [8]) [fold] | fold binding over CHO background (murine VEGF165 [9]) [fold] | Binder | further results
> 100 | 1.24 | 0.000286 | 230000 | 0.15 | no binding | 0.129 | 0.319 | 3.5 | 2.08 | 22.8 | 2.09 | 23 | 2.65 | 29.1 | 0.868 | 9.5 | 0.0778 | 0.9 | 0.7 | XPA.10.064 IgG2 (antibody, V domains shown, Converted to IgG with gamma-2 heavy chain constant region; Expressed in 293E cells; also called parental XPA.10.064; VPA.10.064) VH: EVQLVQSGAEVRKPGASVKVSCKASGYSFTGHYIHWVRQAPGQGLEWMGWINPYSGGTNFPREFQGRVTMTRDTSVNTVYMELTRLTSDDTSVYYCARDHRIVGGLDYWGQGTLVTVSS VL: SYVLTQPPSASGTPGQRVTISCSGSSSNIGINYVYWYQQLPGTAPKLLIYRNDQRPSGVPDRFSGSKSGTSASLAISGLRSEDEADYYCATWDDSLSGVVFGGGTKVTVL | Kd (murine VEGF165 [2]): 197 nM; Inhibition of HUVEC proliferation, EC50 (µg/ml), HEK 293 hVEGF165 (human VEGF165 [10]): 0.66 µg/mL; EC50 (human VEGF165 [11]): 0.159 µg/mL; Kd (human VEGF165 [12]): 1.71 nM; koff (human VEGF165 [12]): 0.000335 s⁻¹; kon (human VEGF165 [12]): 193000 M⁻¹ s⁻¹; HUVEC proliferation, geometric mean IC50 (human VEGF165 [13]): 1.32 nM; Kd (human VEGF165 [14]): 1.24 to 1.71 nM
> 100 | 1.66 | 0.000279 | 168000 | 0.24 | no binding | 0.173 | 0.296 | 3.3 | 2.78 | 30.5 | 2.66 | 29.2 | 2.9 | 31.8 | 1.22 | 13.4 | 0.0951 | 1 | 1.1 | XPA.10.072 IgG2 (antibody, V domains shown, IgG2 (gamma-2 constant region); also called XPA.072; VPA.10.072) VH: RLQLVQSGAEVRKPGASVKVSCKASGYSFTGHYIHWARQAPGQGLEWMGWINPYSGGTNFPREFQGRVTMTRDTSVNTVYMELTRLTSDDTSVYYCARDHRIVGGLDYWGQGTLVTVSS VL: QSVLTQPPSASGTPGQRVTISCSGSSSNLGSNFVYWYQQLPGTAPKLLIYRNHQRPSGVPDRFSGSKSGTSASLAISGLRSEDEADYYCASWDDSLRVVVFGGGTKLTVL | Kd (human VEGF165 [15]): 1.66 to 1.7 nM; HUVEC Proliferation Potency (HPP): HEK293-hVEGF165, IgG2 (IC50) (human VEGF165 [4]): 0.68 µg/mL; Inhibition of HUVEC proliferation, EC50 (µg/ml), HEK 293 hVEGF165 (human VEGF165 [10]): 0.68 µg/mL; EC50 (human VEGF165 [11]): 0.121 µg/mL
